Measured values as given in the supplement of paper PMC10567573.

B1: FUT8 (parent)
chain: NWRYATGGWETVFRPVSETCTDRS
B2: CPXM2 (parent)
chain: EILGCPLPDPNNYYHRRNEMTTTD

Variants of: B1
Assay: protein stability index of a GFP-peptide fusion (GPS, HEK-293T) (PSI 1-6); higher = more stable
Conditions: c terminus: a fixed tail appended
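Further: lentivirally expressed fusions sorted by FACS into six bins by GFP to DsRed ratio, PSI derived from sequencing read proportions per bin multiplied by bin number.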

Protein stability index, by site and new letter:
S24: K 2.6; A 1.69; D 1.76; T 2.03; M 1.96; F 1.88; N 2.44; P 2.33; R 1.47; Y 1.86; L 2.3; H 1.64; V 2.67; I 1.71; Q 2.72
T21: H 1.56; G 1.47; Y 1.84; L 2.43; P 1.26; V 1.9; M 3.38; A 1.39; F 2.31; D 1.34; E 1.55; K 2.49; R 2.8
R23: K 1.92; S 1.56; G 1.6; N 1.44; Y 2.49; I 1.21; W 1.91; V 2.89; H 3.12; M 2.34; L 3.42; T 2.02; F 1.77; D 2.41; E 1.75; A 2.36; P 2.08
D22: P 1.48; W 1.25; S 2.43; I 2.98; H 1.45; T 3.48; M 1.9; N 1.24; R 1.84; Q 1.69; K 2.12; V 1.54; C 1.93; L 1.7; E 2.33; Y 2.07

Variants of: B2
Assay: as above
Conditions: c terminus: a fixed tail appended

Protein stability index, by site and new letter:
G4: A 3.35; S 3.57; V 3.41; N 2.93; E 4.09; L 2.69; Y 3.13; Q 3.5; C 3.47; R 3.73; F 2.69; W 2.77; H 3.71; D 3.96; I 2.72; M 3.15; P 4.03; K 3.39; T 3.49
C5: K 4.08; E 4.07; M 3.83; W 2.72; S 4.17; I 3.28; R 3.54; V 3.41; Y 2.96; N 3.61; A 3.79; L 3.62; G 3.76; P 4.42; T 3.8; F 3.65; H 3.91; D 4.09; Q 3.85
E1: R 3.59; N 3.42; W 1.86; L 2.63; T 3.69; H 3.16; C 2.83; M 2.23; K 3.18; I 2.52; Q 3.02; V 2.4; A 3.2; S 3.54; G 3.58; P 4.63; D 3.8; F 1.83; Y 2.29
P6: D 3.95; H 2.94; G 2.87; M 2.07; F 1.91; I 2.01; L 2.14; C 2.92; K 2.76; E 3.58; A 3.16
I2: E 4.91; V 3.79; F 3.75; M 4.04; Q 4.76; G 5.13; C 3.98; T 4.32; Y 3.77; K 4.54; D 4.86; W 3.82; S 4.51; L 3.34; N 4.55; A 4.51; R 4.28; H 4.64; P 4.87
L3: S 4.41; P 4.7; Q 4.13; V 3.85; E 4.39; K 4.48; A 4.09; G 4.45; M 4.05; T 3.99; F 3.38; H 4.16; N 3.78; R 4.3; C 4.07; D 4.32; Y 3.7; W 3.84; I 3.58
